Test [1] deals with thrombin receptor, PAR-1, in human microvascular endothelial cells (HMEC) (human) (UniProt P25116). The test can be described thus: cell-based or functional assay.
Another test relates to PAR-1 gene promotor. The test can be described thus: Thrombin-stimulated PAR-1 gene induction, luciferase reporter assay in HMEC. Type of test: cell-based, human. Particulars: 10 nanomolar thrombin, four hours, pertussis toxin 100 nanograms per milliliter pretreatment. The text has this: Thrombin treatment of cells induces the expression of the gene encoding its GPCR, PAR-1. This induction is mediated through the PAR-1 gene promotor sequence. The PAR-1 gene promotor sequence can be made to direct the expression of a reporter gene such as, the luciferase gene, thereby providing a means of observing the level of PAR-1 gene induction occurring in response to thrombin treatment of cells.
A PAR-1 promoter sequence comprising 1.82 kilobases was inserted upstream of the gene, Firefly (Photinus pyralis) luciferase in a pGL2 vector DNA to generate the plasmid DNA, PCR-1/Luc. The sea pansy (Renilla reniformis) luciferase gene operably linked to the Herpes Simplex Virus-Thymidine Kinase promoter (TK) in a pRL vector DNA (TK/pRL) served as an internal control to correct for experimental variation. HMEC were co-transfected with 100 nanograms each of a reporter DNA, PCR-1/Luc or TK/pRL, and one of pcDNA3.1, pcDNA-Gαi, or pcDNA-GαiR using protocols and reagents described in the previous Example. Twenty four hours post-transfection, HMEC were incubated in serum-free culture media (Dulbecco's Modified Eagles Medium, DMEM) for 2 hr at 37° C., following which, thrombin was added to the culture media at a concentration of 10 nanomolar. The cells were then incubated at 37° C. for four hours and lysed. […]
In general terms: A reporter such as luciferase makes a cellular process visible.

The text below walks through data of US20030162258A1, “Inhibitors of G protein-mediated signaling, methods of making them, and uses thereof” (Northwestern University, priority 2000, published 2003).

Chain of UniProt P25116 (P25116 42-425): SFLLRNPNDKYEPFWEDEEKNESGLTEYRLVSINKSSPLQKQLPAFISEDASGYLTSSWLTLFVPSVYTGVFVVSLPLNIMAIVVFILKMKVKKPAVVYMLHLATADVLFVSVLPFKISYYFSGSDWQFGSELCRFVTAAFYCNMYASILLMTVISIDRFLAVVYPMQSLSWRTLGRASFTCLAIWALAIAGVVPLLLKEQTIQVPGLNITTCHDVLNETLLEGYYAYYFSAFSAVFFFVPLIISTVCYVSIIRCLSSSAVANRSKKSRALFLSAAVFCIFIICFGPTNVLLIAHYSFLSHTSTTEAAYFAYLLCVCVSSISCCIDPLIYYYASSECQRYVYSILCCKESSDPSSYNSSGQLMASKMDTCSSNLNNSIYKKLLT

In the case of “Gαs carboxy terminal peptide encoded by minigene pcDNA-Gαs (from UniProt P63092 384-394)”, the decrease in transendothelial electrical resistance (TEER) following thrombin stimulation, HMEC in test [1] is 23%.

For Pertussis toxin, the “level of luciferase activity after thrombin treatment (PAR-1 gene induction)” value with PAR-1 gene promotor is “blocked the increase in luciferase levels”.
